Common to all, as to assay: cell-based or functional assay
The target in one test is Fas (human) (UniProt P25445).
The target in test [1] is B7-1 (CD28 ligand) on mouse lymph node accessory cells (mouse) (UniProt Q00609).
The target of test [2] is B7-2 (CD28 ligand) on mouse lymph node accessory cells (mouse) (UniProt P42082).

For two substances, viability of Jurkat Neo control clones after Fas antibody and viability of the activated T cells results are on record in patent US20060199780A1.

Where only a bound is given, the exact number is not on record here.

Chain of UniProt P25445 (P25445 26-335): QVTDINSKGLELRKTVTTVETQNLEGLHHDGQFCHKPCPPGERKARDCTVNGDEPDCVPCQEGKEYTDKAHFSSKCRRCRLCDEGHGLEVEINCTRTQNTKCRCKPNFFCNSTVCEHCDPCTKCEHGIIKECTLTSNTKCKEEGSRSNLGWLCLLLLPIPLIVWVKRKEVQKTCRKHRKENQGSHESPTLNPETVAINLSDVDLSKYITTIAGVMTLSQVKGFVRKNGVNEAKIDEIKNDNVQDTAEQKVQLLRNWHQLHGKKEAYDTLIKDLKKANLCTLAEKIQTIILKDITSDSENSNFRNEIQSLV
Chain of UniProt P42082 (P42082 24-309): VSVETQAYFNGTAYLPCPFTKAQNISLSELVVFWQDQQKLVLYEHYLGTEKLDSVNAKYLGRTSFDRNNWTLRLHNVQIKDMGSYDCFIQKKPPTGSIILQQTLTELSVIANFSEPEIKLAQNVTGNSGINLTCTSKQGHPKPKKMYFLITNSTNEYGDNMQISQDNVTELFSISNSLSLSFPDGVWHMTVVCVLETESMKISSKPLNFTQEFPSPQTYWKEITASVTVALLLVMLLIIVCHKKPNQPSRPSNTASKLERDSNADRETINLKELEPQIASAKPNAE
Chain of UniProt Q00609 (Q00609 38-306): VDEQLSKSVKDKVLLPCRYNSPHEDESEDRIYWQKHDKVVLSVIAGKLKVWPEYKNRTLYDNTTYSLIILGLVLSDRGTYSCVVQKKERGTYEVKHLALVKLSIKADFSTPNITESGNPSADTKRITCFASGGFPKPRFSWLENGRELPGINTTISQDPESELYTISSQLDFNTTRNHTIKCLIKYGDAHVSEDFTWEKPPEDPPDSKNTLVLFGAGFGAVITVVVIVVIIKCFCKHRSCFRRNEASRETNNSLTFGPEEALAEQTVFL

Take “CH-11 anti-Fas monoclonal antibody (Panvera)”: in the test with Fas (human), the viability of Jurkat Neo control clones after Fas antibody at 10 ng/ml was < 10%. Turning to CTLA4Ig (from Repligen) (Fc fusion), the viability of the activated T cells at 72 hrs in test [1] and in test [2] was 20% each time.
